Experimental findings from patent US20250230247A1 (DREN BIO, published 2025) are described below.

Broadly, the EC50 is the concentration giving half of the maximal effect.

The target of one experiment is T1, human Dectin-1 isoform A (human, UniProt Q9BXN2 1-247).
T1 construct: also called hDectin-1a; Dectin-1 on HEK-Blue hDectin-1a cells
T1 sequence: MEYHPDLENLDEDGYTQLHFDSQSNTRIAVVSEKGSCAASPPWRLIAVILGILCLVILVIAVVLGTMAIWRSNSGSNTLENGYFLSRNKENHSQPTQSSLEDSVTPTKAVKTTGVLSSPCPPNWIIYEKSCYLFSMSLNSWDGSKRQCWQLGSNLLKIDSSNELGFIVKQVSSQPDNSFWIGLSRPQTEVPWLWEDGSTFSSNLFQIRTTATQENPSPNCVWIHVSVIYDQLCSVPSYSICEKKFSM
The experiment can be described thus: flow cytometry on HEK Blue Dectin 1a cells (MFI). Background: Flow cytometry measures light scatter and fluorescence of single cells or particles in a stream.

Experiment [1] addresses T2, human Dectin-1 (biosensor tests of Tables 3, 4A and 9; construct not stated) (human, UniProt Q9BXN2 66-247, limits assumed).
T2 construct: also called hDectin-1
T2 sequence (looked up): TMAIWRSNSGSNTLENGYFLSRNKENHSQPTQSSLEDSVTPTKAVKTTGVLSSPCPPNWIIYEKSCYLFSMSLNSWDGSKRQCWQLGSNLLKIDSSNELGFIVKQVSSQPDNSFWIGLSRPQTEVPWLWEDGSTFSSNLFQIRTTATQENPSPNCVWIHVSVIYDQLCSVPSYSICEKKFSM
As to the kind of experiment: Octet. For orientation: In BLI a coated tip is dipped into the sample, and binding shifts an interference pattern.

Experiment [2] deals with T2, human Dectin-1 (biosensor tests of …). As to the kind of experiment: Octet response. On X = 340: time not given here. On X = 470: time not given here.
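Wherever delta is given: Single-point dissociation rate (koff) fit for each variant binding domain, expressed as change versus the parental clone.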

B1: 2M24 monospecific antibody (Example 18) (antibody, V domains shown)
VH: QVQLVQSGAEVKKPGASVKVSCKSSGYTFTDYYIHWVRQAPGQGLEWMGWINPNSGDTNYAQKFQGRITMTRDTSISTAYLELSRLRSDDTAVFYCARNSGSYSFGYWGQGTLVTVSS
VL: DIQMTQSPSSVSASVGDRVTITCRASQGISSWLAWYQQKPGKAPKLLIFGASSLQSGVPSRFSGSGSGTDFTLTVSSLQPEDFATYYCQQAYSFPFTFGPGTKVDIE
notes: also called parental 2M24 antibody
B1 gave an EC50 with human Dectin-1 isoform A of 343 pM.

B2: 2M24.119 monospecific antibody (antibody, V domains shown)
VH: QVQLVQSGAEVKKPGASVKVSCKASGYTFTDYYMHWVRQAPGQGLEWMGWINPNEGDTNYAQKFEGRITMTRDTSISTAYMELSRLRSDDTAVYYCARNTGAYSFGYWGQGTLVTVSS
VL: DIQMTQSPSSVSASVGDRVTITCRASQGISSWLAWYQQKPGKAPKLLIYGASDLQSGVPSRFSGSGSGTDFTLTISSLQPEDFATYYCQQAYGFPFTFGPGTKVDIK
Molecule B2 registered a concentration for a half-maximal effect (EC50) in the experiment with human Dectin-1 isoform A of 393 pM.

B3: 2M24A.1.18 (Fab, V domains shown)
VH: QVQLVQSGAEVKKPGASVKVSCKSSGYTFTDYYIHWVRQAPGQGLEWMGWINPNSGDTNYAQKFQGRITMTRDTSISTAYLELSRLRSDDTAVFYCARNSGAYSFGYWGQGTLVTVSS
VL: DIQMTQSPSSVSASVGDRVTITCRASQGISSWLAWYQQKPGKAPKLLIFGASSLQSGVPSRFSGSGSGTDFTLTVSSLQPEDFATYYCQQAYSFPFTFGPGTKVDIE
notes: Fab; also called 2M24.1.18
For B3, in experiment [1], the delta came out at 9%. Besides, in experiment [2], the “X = 290” value is 0.138 and the “X = 350” value was determined as 0.124.

B4: 2M24A.1.28 (Fab, V domains shown)
VH: QVQLVQSGAEVKKPGASVKVSCKSSGYTFTDYYIHWVRQAPGQGLEWMGWINPNSGDTNYAQKFQGRITMTRDTSISTAYLELSRLRSDDTAVFYCARNSGSYSFGYWGQGTLVTVSS
VL: DIQMTQSPSSVSASVGDRVTITCRASQGISSWLAWYQQKPGKAPKLLIFGASSLQSGVPSRFSGSGSGTDFTLTVSSLQPEDFATYYCQQAYSFPATFGPGTKVDIE
notes: Fab; also called 2M24.1.28
In the case of B4, the delta in experiment [1] amounted to 90%. In experiment [2], the “X = 340” value is 0.309 and the “X = 470” value turned out to be 0.031.

B5: 2M24A.1.23 (Fab, V domains shown)
VH: QVQLVQSGAEVKKPGASVKVSCKSSGYTFTDYYIHWVRQAPGQGLEWMGWINPNSGDTNYAQKFQGRITMTRDTSISTAYLELSRLRSDDTAVFYCARNSGSYSFGYWGQGTLVTVSS
VL: DIQMTQSPSSVSASVGDRVTITCRASQGISSWLAWYQQKPGKAPKLLIFGASSLQSGVPSRFSGSGSGTDFTLTVSSLQPEDFATYYCAQAYSFPFTFGPGTKVDIE
notes: Fab; also called 2M24.1.23
As to B5, the delta in experiment [1] was found to be 18%. Besides, in experiment [2], the “X = 290” value came to 0.128 and the “X = 350” value turned out to be 0.104.

B6: 2M24A.1.20 (Fab, V domains shown)
VH: QVQLVQSGAEVKKPGASVKVSCKSSGYTFTDYYIHWVRQAPGQGLEWMGWINPNSGDTNYAQKFQGRITMTRDTSISTAYLELSRLRSDDTAVFYCARNSGSYSAGYWGQGTLVTVSS
VL: DIQMTQSPSSVSASVGDRVTITCRASQGISSWLAWYQQKPGKAPKLLIFGASSLQSGVPSRFSGSGSGTDFTLTVSSLQPEDFATYYCQQAYSFPFTFGPGTKVDIE
notes: Fab; also called 2M24.1.20
For the molecule B6, the delta in experiment [1] worked out at 78%. Besides, in experiment [2], the “X = 290” value amounted to 0.0981 and the “X = 350” value is 0.0215.

B7: 2M24A.1.21 (Fab, V domains shown)
VH: QVQLVQSGAEVKKPGASVKVSCKSSGYTFTDYYIHWVRQAPGQGLEWMGWINPNSGDTNYAQKFQGRITMTRDTSISTAYLELSRLRSDDTAVFYCARNSGSYSFAYWGQGTLVTVSS
VL: DIQMTQSPSSVSASVGDRVTITCRASQGISSWLAWYQQKPGKAPKLLIFGASSLQSGVPSRFSGSGSGTDFTLTVSSLQPEDFATYYCQQAYSFPFTFGPGTKVDIE
notes: Fab; also called 2M24.1.21
Molecule B7 showed a delta in experiment [1] of 8%. In experiment [2], the “X = 290” value is 0.125 and the “X = 350” value turned out to be 0.114.

B8: 2M24A.1.29 (Fab, V domains shown)
VH: QVQLVQSGAEVKKPGASVKVSCKSSGYTFTDYYIHWVRQAPGQGLEWMGWINPNSGDTNYAQKFQGRITMTRDTSISTAYLELSRLRSDDTAVFYCARNSGSYSFGYWGQGTLVTVSS
VL: DIQMTQSPSSVSASVGDRVTITCRASQGISSWLAWYQQKPGKAPKLLIFGASSLQSGVPSRFSGSGSGTDFTLTVSSLQPEDFATYYCQQAYSFPFAFGPGTKVDIE
notes: Fab; also called 2M24.1.29
Consider B8, for which, in experiment [1], the delta stood at 23%. For the same molecule, in experiment [2], the “X = 340” value came out at 0.456 and the “X = 470” value amounted to 0.35.

B9: 2M24A.1.22 (Fab, V domains shown)
VH: QVQLVQSGAEVKKPGASVKVSCKSSGYTFTDYYIHWVRQAPGQGLEWMGWINPNSGDTNYAQKFQGRITMTRDTSISTAYLELSRLRSDDTAVFYCARNSGSYSFGAWGQGTLVTVSS
VL: DIQMTQSPSSVSASVGDRVTITCRASQGISSWLAWYQQKPGKAPKLLIFGASSLQSGVPSRFSGSGSGTDFTLTVSSLQPEDFATYYCQQAYSFPFTFGPGTKVDIE
notes: Fab; also called 2M24.1.22
As for B9, the delta in experiment [1] turned out to be 15%. Also, in experiment [2], the “X = 290” value came to 0.131 and the “X = 350” value came to 0.112.

B10: 2M24A.1.26 (Fab, V domains shown)
VH: QVQLVQSGAEVKKPGASVKVSCKSSGYTFTDYYIHWVRQAPGQGLEWMGWINPNSGDTNYAQKFQGRITMTRDTSISTAYLELSRLRSDDTAVFYCARNSGSYSFGYWGQGTLVTVSS
VL: DIQMTQSPSSVSASVGDRVTITCRASQGISSWLAWYQQKPGKAPKLLIFGASSLQSGVPSRFSGSGSGTDFTLTVSSLQPEDFATYYCQQAYSAPFTFGPGTKVDIE
notes: Fab; also called 2M24.1.26
Regarding B10, the delta in experiment [1] worked out at 92%. In experiment [2], the “X = 340” value worked out at 0.231 and the “X = 470” value came to 0.018.

B11: 2M24A.1.24 (Fab, V domains shown)
VH: QVQLVQSGAEVKKPGASVKVSCKSSGYTFTDYYIHWVRQAPGQGLEWMGWINPNSGDTNYAQKFQGRITMTRDTSISTAYLELSRLRSDDTAVFYCARNSGSYSFGYWGQGTLVTVSS
VL: DIQMTQSPSSVSASVGDRVTITCRASQGISSWLAWYQQKPGKAPKLLIFGASSLQSGVPSRFSGSGSGTDFTLTVSSLQPEDFATYYCQAAYSFPFTFGPGTKVDIE
notes: Fab; also called 2M24.1.24
B11: the delta in experiment [1] stood at 36%. In experiment [2], the “X = 290” value is 0.115 and the “X = 350” value turned out to be 0.073.

B12: 2M24A.1.17 (Fab, V domains shown)
VH: QVQLVQSGAEVKKPGASVKVSCKSSGYTFTDYYIHWVRQAPGQGLEWMGWINPNSGDTNYAQKFQGRITMTRDTSISTAYLELSRLRSDDTAVFYCARNSASYSFGYWGQGTLVTVSS
VL: DIQMTQSPSSVSASVGDRVTITCRASQGISSWLAWYQQKPGKAPKLLIFGASSLQSGVPSRFSGSGSGTDFTLTVSSLQPEDFATYYCQQAYSFPFTFGPGTKVDIE
notes: Fab; also called 2M24.1.17
Regarding B12, in experiment [1], the delta is 1%. Moreover, in experiment [2], the “X = 290” value amounted to 0.131 and the “X = 350” value stood at 0.129.

B13: 2M24A.1.27 (Fab, V domains shown)
VH: QVQLVQSGAEVKKPGASVKVSCKSSGYTFTDYYIHWVRQAPGQGLEWMGWINPNSGDTNYAQKFQGRITMTRDTSISTAYLELSRLRSDDTAVFYCARNSGSYSFGYWGQGTLVTVSS
VL: DIQMTQSPSSVSASVGDRVTITCRASQGISSWLAWYQQKPGKAPKLLIFGASSLQSGVPSRFSGSGSGTDFTLTVSSLQPEDFATYYCQQAYSFAFTFGPGTKVDIE
notes: Fab; also called 2M24.1.27
In experiment [1], B13 showed a delta of 19%. Besides, in experiment [2], the “X = 340” value was determined as 0.483 and the “X = 470” value was determined as 0.393.

B14: 2M24A.1.19 (Fab, V domains shown)
VH: QVQLVQSGAEVKKPGASVKVSCKSSGYTFTDYYIHWVRQAPGQGLEWMGWINPNSGDTNYAQKFQGRITMTRDTSISTAYLELSRLRSDDTAVFYCARNSGSYAFGYWGQGTLVTVSS
VL: DIQMTQSPSSVSASVGDRVTITCRASQGISSWLAWYQQKPGKAPKLLIFGASSLQSGVPSRFSGSGSGTDFTLTVSSLQPEDFATYYCQQAYSFPFTFGPGTKVDIE
notes: Fab; also called 2M24.1.19
B14 registered a delta in experiment [1] of 22%. In addition, in experiment [2], the “X = 290” value amounted to 0.126 and the “X = 350” value was determined as 0.0983.

B15: 2M24A.1.25 (Fab, V domains shown)
VH: QVQLVQSGAEVKKPGASVKVSCKSSGYTFTDYYIHWVRQAPGQGLEWMGWINPNSGDTNYAQKFQGRITMTRDTSISTAYLELSRLRSDDTAVFYCARNSGSYSFGYWGQGTLVTVSS
VL: DIQMTQSPSSVSASVGDRVTITCRASQGISSWLAWYQQKPGKAPKLLIFGASSLQSGVPSRFSGSGSGTDFTLTVSSLQPEDFATYYCQQAYAFPFTFGPGTKVDIE
notes: Fab; also called 2M24.1.25
In turn, B15 showed a delta in experiment [1] of 9%. In addition, in experiment [2], the “X = 340” value is 0.475 and the “X = 470” value is 0.432.

B16: 2M24.116 monospecific antibody (antibody, V domains shown)
VH: QVQLVQSGAEVKKPGASVKVSCKASGYTFTDYYMHWVRQAPGQGLEWMGWINPNEGDTNYAQKFQERITMTRDTSISTAYMELSRLRSDDTAVYYCARNTGAYSFGYWGQGTLVTVSS
VL: DIQMTQSPSSVSASVGDRVTITCRASQGISSWLAWYQQKPGKAPKLLIYGASDLQSGVPSRFSGSGSGTDFTLTISSLQPEDFATYYCHQAYSFPFTFGPGTKVDIK
Turning to B16, the midpoint of the response with human Dectin-1 isoform A, the EC50, lay at 370 pM.
